One assay has as its system NRP-154 cells. In words: Immunofluorescence localization / nuclear translocation of ARTS constructs in NRP-154 cells. The class given is cell-based, rat. Conditions: following TGF-β treatment. Here is the method: (§1) NRP-154 and COS cells were cultured and transfected as described above, and transfected with an ARTS-AU5 tagged construct, essentially as described in Part D, above. The cells were then treated with 10 ng/ml TGF-β.
(§2) An immunofluorescence assay was performed essentially as described in Part G2, above using anti-AU5 antibodies (commercially available Babco, Richmond, Calif.). Anti-AU5 FITC-conjugated secondary antibodies (Pierce) were used to detect transfected ARTS.

A further assay relates to COS cells. In words: Immunofluorescence localization / nuclear translocation of ARTS constructs in COS cells. The class given is cell-based, monkey. Conditions: in response to treatment with TGF-β. The protocol:
as §1, §2

B1: ARTS-AU5: AU5 tagged construct containing the entire ARTS coding sequence in pCEF-AU5 vector (protein)
chain: MIKRFLEDTTDDGELSKFVKDFSGNASCHPPEAKTWASRPQVPEPRPQAPDLYDDDLEFRPPSRPQSSDNQQYFCAPAPLSPSARPRSPWGKLDPYDSSEDDKEYVGFATLPNQVHRKSVKKGFDFTLMVAGESGLGKSTLVNSLFLTDLYRDRKLLGAEERIMQTVEITKHAVDIEEKGVRLRLTIVDTPGFGDAVNNTECWKPVAEYIDQQFEQYFRDESGLNRKNIQDNRVHCCLYFISPFGHGYGPSLRLLAPPGAVKGTGQEHQGQGCH
modifications: left off: small tags and cut ends
Regarding B1, the “translocation to the nucleus” value in the assay with NRP-154 cells is given as “translocates to from the mitochondria to the nucleus”. Also, the “translocation to / localization in the nucleus” value with COS cells is “translocates to from the mitochondria to the nucleus”.

The values are drawn from patent publication US20030124571A1, “Novel human septin and uses therefor” (The Government of the United States of America, priority 2000, published 2003).
